Results on 2 molecules are retold here after patent US11866760B2, “Microorganisms for the production of insect pheromones and related compounds” (Provivi, Inc., priority 2017, dated 2024).

Common to all, as to assay type: cell-based, Saccharomyces cerevisiae
The subject of one experiment is S. cerevisiae ΔOLE1. Nature of the experiment: ΔOLE1 growth complementation assay without UFA. From the text:
S. cerevisiae ΔOLE1 (MATA OLE1::LEU2 ura3-52 his4) was used as an expression host. A synthetic expression cassette termed pOLE1 (FIG. 10, SEQ ID NO: 4) which comprises the OLE1 promoter region (SEQ ID NOs: 5 and 6), nucleotides encoding for 27 N-terminal amino acids of the OLE1 leader sequence (SEQ ID NO: 7), and a VPS13 terminator sequence (SEQ ID NO: 8) was created, and cloned into pESC-URA vector in between SacI and EcoRI sites. To test the functionality of the pOLE1 cassette, Dasher GFP synthon was inserted in between SpeI and NotI sites to create pOLE1-GFP plasmid. Competent ΔOLE1 was transformed with pOLE1-GFP, and plated on CM-Ura glucose agar plate (Teknova) containing UFA (20 mm CM-URA glucose agar plate was coated with 100 μL CM-Ura glucose medium containing 1% tergitol, and 3 μL palmitoleic acid). […] Validation of ΔOLE1 complementation was performed by restoring OLE1 activity. Specifically, native S. cerevisiae OLE1 synthon was inserted into pOLE1 cassette devoid of the leader sequence to create pOLE1-OLE1 plasmid. After transformation of ΔOLE1, and selection on CM-Ura glucose agar containing UFA, single colonies were patched onto YPD and CM-Ura glucose without UFA. After incubation at 30° C. for 5 days, growth was observed (FIG. 11A-FIG. 11E). As expected, Dasher GFP expression could not complement ΔOLE1 growth without UFA (FIG. 11A-FIG. 11E). DNA sequences which encode for desaturase variants were synthesized (to include nucleotide changes which remove restriction sites used for cloning purposes), and cloned into pOLE1 using SpeI-NotI sites (Genscript, SEQ ID NOs: 9-13). Complementation assay of ΔOLE1 with insect desaturases were performed in the same way as with OLE1 desaturase.

In the next experiment the test system is palmitic acid. Nature of the experiment: in vivo bioconversion of palmitic acid into (Z)-11-hexadecenoic acid in S. cerevisiae ΔOLE1. The settings on record: ΔOLE1, ~96 h in minimal medium containing palmitic acid. The method, then: To assess functional expression, two positive transformation clones that had been patched on CM-Ura glucose agar medium containing UFA were inoculated in 1.5 mL CM-Ura glucose liquid medium containing palmitic acid (in ethanol) at a final concentration of 300 mg/L, and with 6.7 g/L of YNB. For (z)-11-hexadecenoic isomer confirmation, a 20 mL culture was generated. Bioconversion assay proceeded for 96 h at 28° C. prior to GC-MS analysis.
Total lipid composition as well as the (Z)-11-hexadecenoic acid quantification was based on modified procedures by Moss et al. (1982) (Moss, C. W., Shinoda, T. & Samuels, J. W. Determination of cellular fatty acid compositions of various yeasts by gas-liquid chromatography. J. Clin. Microbiol. 16: 1073-1079 (1982)) and Yousuf et al (2010) (Yousuf, A., Sannino, F., Addorisio, V. & Pirozzi, D. Microbial Conversion of Olive Oil Mill Wastewaters into Lipids Suitable for Biodiesel Production. J. Agric. Food Chem. 58: 8630-8635 (2010)). The pelleted cells (in 1.5 mL plastic tubes), usually about 10 mg to 80 mg, were resuspended in methanol containing 5% (w/w) of sodium hydroxide. […]
The regioselectivity of biologically produced (Z)-11-hexadecenoic acid was determined by comparing the fragmentation patterns of the dimethyl disulfide (DMDS) derivative with the DMDS derivative of an authentic standard. […]

Another experiment relates to Z11-hexadecenoic acid. The experiment can be described thus: in vivo bioconversion of Z11-hexadecenoic acid into Z11-hexadecenol by alcohol-forming reductases in S. cerevisiae. From the text: S. cerevisiae W303 (MATA ura3-1 trp1-1 leu2-3_112 his3-11_15 ade2-1 can1-100) and BY4742 (MATa POX1::kanMX his3Δ1 leu2Δ0 lys2Δ0 ura3Δ0) were used as expression hosts. DNA sequences which encode fatty alcohol reductase variants were redesigned to optimize expression in S. cerevisiae (SEQ ID NOs: 1-3). Generated synthons (Genscript) were cloned into pESC-URA vector using BamHI-XhoI sites to facilitate protein expression utilizing the Gal1 promoter. The resulting plasmid constructs were used to transform W303, and positive transformants were selected on CM agar medium (with 2% glucose, and lacking uracil) (Teknova). To assess functional expression, two positive transformation clones that have been patched on CM agar medium (with 2% glucose, and lacking uracil) were used to seed CM liquid medium using a 24 deep-well plate format. […]
The lipids were extracted according to a modified procedure of Hagström et al. (2012) (Hagström, A. K., Liénard, M. A., Groot, A. T., Hedenström, E. & Löfstedt, C. Semi-Selective Fatty Acyl Reductases from Four Heliothine Moths Influence the Specific Pheromone Composition. PLoS One 7: e37230 (2012)). […] The trimethylsilyl-esters, which were generated by this method were subsequently analyzed by GC-MS analysis. […] A Z11-hexadecenol calibration curve shown in FIG. 9 was used to quantify the Z11-hexadecenol produced from yeasts. […]

Several values for one entry are separate records, joined by “and”; a condition that tells them apart may be missing. Equal entries are not always repeated.

B1: S. cerevisiae OLE1: native S. cerevisiae palmitoyl:CoA/stearoyl:CoA (Z)-9-desaturase, positive control (protein, UniProt P21147 1-510, looked up)
Acyl-CoA desaturase 1: MPTSGTTIELIDDQFPKDDSASSGIVDEVDLTEANILATGLNKKAPRIVNGFGSLMGSKEMVSVEFDKKGNEKKSNLDRLLEKDNQEKEEAKTKIHISEQPWTLNNWHQHLNWLNMVLVCGMPMIGWYFALSGKVPLHLNVFLFSVFYYAVGGVSITAGYHRLWSHRSYSAHWPLRLFYAIFGCASVEGSAKWWGHSHRIHHRYTDTLRDPYDARRGLWYSHMGWMLLKPNPKYKARADITDMTDDWTIRFQHRHYILLMLLTAFVIPTLICGYFFNDYMGGLIYAGFIRVFVIQQATFCINSLAHYIGTQPFDDRRTPRDNWITAIVTFGEGYHNFHHEFPTDYRNAIKWYQYDPTKVIIYLTSLVGLAYDLKKFSQNAIEEALIQQEQKKINKKKAKINWGPVLTDLPMWDKQTFLAKSKENKGLVIISGIVHDVSGYISEHPGGETLIKTALGKDATKAFSGGVYRHSNAAQNVLADMRVAVIKESKNSAIRMASKRGEIYETGKFF
Turning to B1, the entries for the “rescue of ΔOLE1 growth without UFA” value with S. cerevisiae ΔOLE1 (minimal medium (CM-Ura glucose) agar plate) and in the experiment with S. cerevisiae ΔOLE1 (rich medium (YPD) agar plate) were “rescued ΔOLE1 growth without exogenous UFA” and “highest level of growth”, respectively. In the experiment on palmitic acid, the “(Z)-9-hexadecenoic acid in C16-fatty acid” value was around 31.4%. In addition, the “hexadecanoic acid in C16-fatty acid” value in the experiment on palmitic acid is listed as “approximately 68.6%”.

B2: H. armigera reductase: Helicoverpa armigera alcohol-forming fatty acyl-CoA reductase, SEQ ID NO: 41 (protein)
chain: MVVLTSKETKPSVAEFYAGKSVFITGGTGFLGKVFIEKLLYSCPDIENIYMLIREKKGLSVSERIKQFLDDPLFTRLKDKRPADLEKIVLIPGDITAPDLGINSENEKMLIEKVSVIIHSAATVKFNEPLPTAWKINVEGTRMMLALSRRMKRIEVFIHISTAYTNTNREVVDEILYPAPADIDQVHQYVKDGISEEDTEKILNGRPNTYTFTKALTEHLVAENQAYVPTIIVRPSVVAAIKDEPLKGWLGNWFGATGLTVFTAKGLNRVIYGHSSYIVDLIPVDYVANLVIAAGAKSSKSTELKVYNCCSSSCNPVTIGTLMSMFADDAIKQKSYAMPLPGWYIFTKYKWLVLLLTFLFQVIPAYVTDLSRHLIGKSPRYIKLQSLVNQTRSSIDFFTNHSWVMKADRVRELYASLSPADKYLFPCDPTDINWTHYIQDYCWGVRHFLEKKSYE
modifications: Helicoverpa armigera alcohol forming reductase (HaFAR)
Turning to B2, in the experiment on Z11-hexadecenoic acid (S. cerevisiae), the “activity toward Z11-hexadecenoic acid among the reductases tested” value is “most active”. Besides, the Z11-hexadecenol production in the experiment on Z11-hexadecenoic acid (W303A, within 48 h of protein induction, 300 mg/L Z11-hexadecenoic acid) was ≤ 70 μM and ≤ 16 mg/L.
